The labels stand for the following.
B1: MalY (wild type), GST tag removed (enzyme, Escherichia coli, UniProt P23256 1-390, looked up)
chain: MFDFSKVVDRHGTWCTQWDYVADRFGTADLLPFTISDMDFATAPCIIEALNQRLMHGVFGYSRWKNDEFLAAIAHWFSTQHYTAIDSQTVVYGPSVIYMVSELIRQWSETGEGVVIHTPAYDAFYKAIEGNQRTVMPVALEKQADGWFCDMGKLEAVLAKPECKIMLLCSPQNPTGKVWTCDELEIMADLCERHGVRVISDEIHMDMVWGEQPHIPWSNVARGDWALLTSGSKSFNIPALTGAYGIIENSSSRDAYLSALKGRDGLSSPSVLALTAHIAAYQQGAPWLDALRIYLKDNLTYIADKMNAAFPELNWQIPQSTYLAWLDLRPLNIDDNALQKALIEQEKVAIMPGYTYGEEGRGFVRLNAGCPRSKLEKGVAGLINAIRAVR
notes: MalY, PLP-dependent dimeric enzyme of E. coli; full-length malY amplified from E. coli genomic DNA, cloned in pGEX-6P-1; the printed mass of 2 × 43.5 kDa fits the untagged protein; Each subunit holds the cofactor PLP; also called MalY WT; source: E. coli BL21 (DE3) ΔmalT220, purified (Glutathione Sepharose, gel filtration); not shown: GST, N-terminal, cleaved
B2: MalT (wild type), N-terminally His-tagged (natural protein, Escherichia coli, UniProt P06993 1-901, looked up)
chain: MLIPSKLSRPVRLDHTVVRERLLAKLSGANNFRLALITSPAGYGKTTLISQWAAGKNDIGWYSLDEGDNQQERFASYLIAAVQQATNGHCAICETMAQKRQYASLTSLFAQLFIELAEWHSPLYLVIDDYHLITNPVIHESMRFFIRHQPENLTLVVLSRNLPQLGIANLRVRDQLLEIGSQQLAFTHQEAKQFFDCRLSSPIEAAESSRICDDVSGWATALQLIALSARQNTHSAHKSARRLAGINASHLSDYLVDEVLDNVDLATRHFLLKSAILRSMNDALITRVTGEENGQMRLEEIERQGLFLQRMDDTGEWFCYHPLFGNFLRQRCQWELAAELPEIHRAAAESWMAQGFPSEAIHHALAAGDALMLRDILLNHAWSLFNHSELSLLEESLKALPWDSLLENPQLVLLQAWLMQSQHRYGEVNTLLARAEHEIKDIREDTMHAEFNALRAQVAINDGNPDEAERLAKLALEELPPGWFYSRIVATSVLGEVLHCKGELTRSLALMQQTEQMARQHDVWHYALWSLIQQSEILFAQGFLQTAWETQEKAFQLINEQHLEQLPMHEFLVRIRAQLLWAWARLDEAEASARSGIEVLSSYQPQQQLQCLAMLIQCSLARGDLDNARSQLNRLENLLGNGKYHSDWISNANKVRVIYWQMTGDKAAAANWLRHTAKPEFANNHFLQGQWRNIARAQILLGEFEPAEIVLEELNENARSLRLMSDLNRNLLLLNQLYWQAGRKSDAQRVLLDALKLANRTGFISHFVIEGEAMAQQLRQLIQLNTLPELEQHRAQRILREINQHHRHKFAHFDENFVERLLNHPEVPELIRTSPLTQREWQVLGLIYSGYSNEQIAGELEVAATTIKTHIRNLYQKLGVAHRQDAVQHAQQLLKMMGYGV
notes: Purified with 0.1 mM ADP or 0.4 mM ATP; the elution at 103 kDa fits the whole protein; In PDB 8BOB only residues 1-423 are well defined; also called WT MalT; MalT WT; source: E. coli BL21 (DE3) ΔmalT220, purified (Ni Sepharose, gel filtration)
B3: N-terminally GST-tagged MalY (enzyme, Escherichia coli, UniProt P23256 1-390, looked up)
chain: B1 chain
notes: MalY of E. coli; full-length malY amplified from E. coli genomic DNA, cloned in pGEX-6P-1; Bait of the pull-down; 10 μM PLP present; not shown: GST, N-terminal, kept

Residue numbers refer to the chain shown, from its start.

Data set [1] concerns the molecule itself. The data set is described as follows: SEC; Superdex 200 Increase 10/300 GL, 4 °C, in the presence of ADP; MalT (buffer A, 0.1 mM ADP) and MalY (buffer TKCl, 10 μM PLP) each alone, or incubated at a 1:1 molar ratio on ice for 30 min and run in buffer TKCl with 0.1 mM ADP and 10 μM PLP.
Data set [2] concerns the target B2. The data set is described as above. The note with it: both partners purified.
The target in data set [3] is B1. The data set is described as follows: cryo-EM structure; purified MalT-MalY complex at about 0.5 mg/ml, ADP and PLP bound; 2.94 Å, C2 symmetry. The note with it: both partners purified.
Data set [4] deals with the molecule itself. The data set is described as follows: SEC; Superdex 200 Increase 10/300 GL, in the presence of 1 mM maltotriose and 0.1 mM ADP; same molar amounts of MalT and MalY WT or MalY-D182A/E185A/S218A, separately or together; fractions on SDS-PAGE.
For data set [5], the target named is T1, MalT-E140A, N-terminally His-tagged (Escherichia coli, UniProt P06993 1-901, E140A).
T1 construct: MalT of Escherichia coli, variant of plasmid pOM206 made by site-directed mutagenesis; source: E. coli BL21 (DE3) ΔmalT220, purified (Ni Sepharose, gel filtration)
T1 sequence (looked up): B2 chain with E140A
The data set is described as follows: pull-down; GST-tagged MalY incubated with an excess of WT or mutant MalT on ice for 30 min, Glutathione Sepharose 4B, buffer TKCl with 0.1 mM ADP and 10 μM PLP; elution with 20 mM glutathione, SDS-PAGE, Coomassie. The following applies: both partners purified.

The target in data set [6] is T2, MalT-N169A, N-terminally His-tagged (Escherichia coli, UniProt P06993 1-901, N169A).
T2 construct: MalT of Escherichia coli, variant of plasmid pOM206 made by site-directed mutagenesis; source: E. coli BL21 (DE3) ΔmalT220, purified (Ni Sepharose, gel filtration)
T2 sequence (looked up): B2 chain with N169A
The data set is described as above. The following applies: both partners purified.

The target of data set [7] is B2. The data set is described as above. The note with it: both partners purified.

Take B1: the “stoichiometry N” value in data set [1] was 2. Also, in data set [2], the binding result is “binds”.

Turning to B2, the “stoichiometry N” value in data set [3] is 1 MalT per MalY (printed as 2:2). Moreover, the binding result in data set [4] is listed as “binds”.

As for B3, the binding result in data set [5], in data set [6] and in data set [7] was “binds” in each case.
